Data taken from publication PMC9122594.
Where two headings read alike, the source gives them in different places.

Legend:
[1] = molecular target: T1, MbpAgo WT (Mucilaginibacter paludis, UniProt H1YCU5 1-795); assay: EMSA
T1 sequence: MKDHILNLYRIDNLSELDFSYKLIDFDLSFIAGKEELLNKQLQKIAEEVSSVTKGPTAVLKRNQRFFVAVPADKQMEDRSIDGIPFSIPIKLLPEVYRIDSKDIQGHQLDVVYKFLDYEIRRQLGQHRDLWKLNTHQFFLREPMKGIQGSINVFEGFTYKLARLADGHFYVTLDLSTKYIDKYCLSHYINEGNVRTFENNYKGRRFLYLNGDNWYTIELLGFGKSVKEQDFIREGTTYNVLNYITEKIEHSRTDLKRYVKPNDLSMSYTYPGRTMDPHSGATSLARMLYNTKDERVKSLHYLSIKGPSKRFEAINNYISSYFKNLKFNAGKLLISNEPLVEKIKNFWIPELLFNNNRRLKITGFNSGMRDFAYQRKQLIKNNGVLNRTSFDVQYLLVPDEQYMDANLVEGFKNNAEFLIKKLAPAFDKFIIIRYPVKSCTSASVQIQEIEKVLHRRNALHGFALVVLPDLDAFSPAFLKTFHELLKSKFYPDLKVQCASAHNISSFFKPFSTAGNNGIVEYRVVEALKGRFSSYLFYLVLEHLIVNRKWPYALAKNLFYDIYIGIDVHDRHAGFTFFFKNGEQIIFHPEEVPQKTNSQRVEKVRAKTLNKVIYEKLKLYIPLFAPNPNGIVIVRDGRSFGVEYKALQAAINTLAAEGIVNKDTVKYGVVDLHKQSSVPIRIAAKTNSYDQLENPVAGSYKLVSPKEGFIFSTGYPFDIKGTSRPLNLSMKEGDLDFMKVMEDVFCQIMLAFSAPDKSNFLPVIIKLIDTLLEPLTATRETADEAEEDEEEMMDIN

[2] = molecular target: T1, MbpAgo WT; assay: EMSA; remark: listed apart in the source

Binder	Kd [1] [nM]	Kd [2] [nM]
TGAGGTAGTAGGTTGT (ssDNA) [T-gDNA iFAM, 5'OH]	148 ± 5.8	162 ± 4.8
TGAGGTAGTAGGTTGT (ssDNA, 5' phosphate) [T-gDNA iFAM, 5'P]	111 ± 3	205 ± 7.6
